The values below come from patent US9371374 (AbbVie / Abbott, dated 2016).

For orientation: Kd means the equilibrium constant for the complex coming apart. Higher therefore signals a looser complex. By koff is commonly meant the first-order rate constant of dissociation. A higher koff goes with a short-lived complex. For orientation: kon means the rate constant with which the complex forms.

To fix the notation:
B1: HCV 208A-877 (antibody, V domains shown)
VH: QLQQSGPELVKPGASVKISCKTSGYTFTENAMHWVKQSRGKSLEWIGGVNPNNGDTVYTQKFKGKATLTVAKSSSTAYMELRTMTCEESTVYYCASREPDFFDYWGQGSSVTVSS
VL: QIVLTQSPAIMSVSPGEKVSMTCSASSSVTYMHWYQQKSGTSPKRWIYDTSELASGVPARFSGSGSGTTYSLTISSMEAEDAATYYCQQWSNKPLTFGAGTKLELKR
B2: HCV 208A-352 (antibody, V domains shown)
VH: QGQMQQSGAELVKPGASVKLSCKTSGFTFSSSFISWLKQKPGQSLEWIAWIYAGTGNTNYNQKFTDKAQLTVDTSSSTAYMQFSSLTTEDSAIYYCAISGTGFTYWGQGTLVTVSA
VL: DVLMAQTPLSLPVTLGDQASISCRSSQSLVHSNGNTYLEWFLQKPGQSPKLLIYNVSNRFSGVPDRFSGSGSGTDFTLKISRVEAEDLGVYYCFQGSHVPLTFGSGTKLEIKR
B3: HCV 208B-1024 (antibody, V domains shown)
VH: EVQLVESGGDLVKPGGSLKLSCAASGFTFSNYGMSWVRQTPDKRLEWVATISSGGSYSYYPDSVKGRFTISRDNAKNILYLQMSSLKSEDTAMYYCASLYYGYGDYWGQGTAFTVSS
VL: DVLMTQTPLSLPVSLGDQASISCRSSQSIVHSNGNTYLEWYLQKLGQSPKLLIYRVSNRFSGVPDRFSGSGSGTDFTLKISRVEAEDLGVYYCFQGSHVPWTFGGGTKLEIKR
B4: HCV 208A-983 (antibody, V domains shown)
VH: QGQMQQSGAELVKPGASVKLSCKTSGFTFSSSYFSWLKQKPGQSLEWIAWIYAGTGNTIYNQKFTDKAQLTVDTASSTAFMQLSSLTIEDSAIYYCAISGTGFTYWGQGTLVTVSA
VL: DVLMTQTPLSLPVNLGDQASISCRSSQSLLHSNGNTYLEWFLQKPGQSPKLLIYNVSNRFSGVPDRFSGSGSGTDFTLKISRVEAEDLGVYYCFQGSHVPFTFGSGTKLAIKR
B5: HCV 208B-281 (antibody, V domains shown)
VH: QGQLQQSGAELVKPGASVKLSCKTSGFTFSSSYISWLKQRPGQSLEWIAWIYAGTGGTNYNQKFTDKAQLTVDTSSSTAYMQFSSLTTEDSAIYYCAISGTGFIYWGQGTLVTVSA
VL: DVLMTQTPLSLPVSLGDQASISCRSSQSLVHNNGNTYLEWFLQKPGQSPKLLIYKVSNRFSGVPDRFSGSGSGTDFTLKISRVEAEDLGVYYCFQGSHVPFTFGSGTKLEIKR
B6: HCV 208B-560 (antibody, V domains shown)
VH: EVQLQQSGPELEKPGASVKISCKTSGYTFTEYAMHWVKQSHGMSLEWIGGINPSNGNAIYNQIFKDKATLTVDRSSSTAYMGLRSLTFGDSGVYFCVRRQLDFFDYWGQGASLTVSS
VL: DIVVTQSPASLAVSLGQRATISCRASQSVSTSRYSYLHWYQQKPGQPPKLLIKYASNLESGVPARFSGSGSGTDFTLNIHPVGEEDTATYYCQHSWEFPFTFGSGTKLEIKR
B7: HCV 208A-830 (antibody, V domains shown)
VH: EVRLQQPGPEVEKPGASVKISCKTSGYTFTEYAIHWVKQSHGESLEWIGGINPSNGDPIYNQIFKDKATLTVDRSSNTAYMGLRSLTVGDSGVYFCVRRQLDYFDFWGQGASLTVSS
VL: DIVLTQSPASLAVSLGQRATISCRSSQSVSTSRYSYLHWYQQKPGQPPKLLIKYASNLESGVPARFSGSGSGTDFTLNIHPVGEEDPATYYCQHSWEFPFTFGSGTKLEIKR
B8: HCV 208A-1064 (antibody, V domains shown)
VH: EVQLQQSGPELVKPGASVKISCKTSGYTFTEYAMHWMKQSHGKSLEWIGGINPTNGDTIYNQKFKDKAKLTVDRSSSTAYMELRSLTSDDSALFYCARRELDYFASWGQGTTLTVSS
VL: DIVLTQSPASLIVSLGQTATISCRASQSVSTSRFSYLHWIQQKPGQPPKLLIKYASNLESGVPVRFSGSGSGTDFTLNIHPVEEEDTATYFCQHSWEFPFTFGSGTKLKIKR
B9: HCV 208A-920 (antibody, V domains shown)
VH: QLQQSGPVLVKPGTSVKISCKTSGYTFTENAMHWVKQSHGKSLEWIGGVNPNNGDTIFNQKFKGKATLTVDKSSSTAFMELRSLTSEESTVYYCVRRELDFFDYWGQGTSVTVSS
VL: DIVLTQSPASLAVSLGQRATISCRASQSVSTSRYSYMHWYQQKPGQPPKLLIKYASNLESGVPARFSGSGSGTDFTLNIHPVAEEDTAAYYCQHSWEFPFTFGSGTKLEIKR
B10: HCV 208A-133 (antibody, V domains shown)
VH: QLQQSGPVLVGPGASVMISCKTSGYTFTENAMHWVEQSHGKSLEWIGGVNPNNGDTIFNQKFKGKATLTVDKSSSTAFMEFRSLTSEESTVYYCVRRELDFFDYWGQGTSVTVSS
VL: DIVLTQSPASLAVSLGQRATISCRASQSVSTSRYSYMHWYQQKPGQPPKLLIKYASNLESGVPARFSGSGSGTDFTLNIHPVAEEDTATYYCQHSWEFPFTFGSGTKLEIKR
B11: HCV 208B-556 (antibody, V domains shown)
VH: QLQQSGPVLVKPGASVMISCKTSGYTFTENAMHWVKQSHGKSLEWIGGVNPNNGDTIFNQKFKGKATLTVDKSSSTAFMEFRSLTSEESTVYYCVRRELDFFDYWGQGTSVTVSS
VL: DIVLTQSPASLAVSLGQRATISCRASQSVSTSRYSYMHWYQQKPGQPPKLLIKYASNLESGVPARFSGSGSGTDFTLNIHPVAEEDTATYYCQHSWEFPFTFGSGTKLEIKR
B12: HCV 208B-251 (antibody, V domains shown)
VH: QLQQSGPVLVKPGASVKISCKTSGYTFTENAMHWVKQSHGKSLEWIGGVNPNNGDTIYNQKFKGKATLTVDKSSSTAFMELRSLTSEESPVYFCVRRELDFFDYWGQGTSVTVSS
VL: DIVLTQSPASLAVSLGKKATISCRASQSVSTSRYSYMHWYQQKPGHPPKLLIKYASNLESGVPARFSGSGSGTDFTLNIHPVAEEDTAAYYCQHSWEFPFTFGSGTKLEIKR
B13: HCV 208B-1094 (antibody, V domains shown)
VH: EVQLQQSGPELVKPGASVKISCKTSGYTFTEYAMHWMKQSHGKSLEWIGGINPTNGDTIYNQRFKDKAKLTVDRSSSTAYMELRSLTSDDSALFYCARRELDYFASWGQGTTLTVSS
VL: DIVLTQSPASLIVSLGQTATISCRASQSLSTSRFSYVHWIQQKPGQPPKLLIKYASNLESGVPVRFSGSGSGTDFTLNIHPVEEEDTATYFCQHSWEFPFTFGSGTKLKIKR
B14: HCV 208A-159 (antibody, V domains shown)
VH: QLQQSGPAQVKPGASVMISCKTSGYTFTENAMHWVKQSHGKSLEWIGGVNPNNGDTIFNQKFKDKAALTVDKSSSTAFMELRSLTSEESTVYYCVRRELDFFDYWGQGTSVTVSS
VL: DIVLTQSPASLAVSLGQRATISCRASQSVSTSRYSYVHWYQQKPGQPPKLLIKYAANLESGVPARFSGSGSGTDFTLNIHPVAEEDAAAYYCQHSWEFPFTFGSGTKLEIKR
B15: HCV 208A-605 (antibody, V domains shown)
VH: EVQLQQSGPELEKPGASVKISCKTSGYTFTEYAIHWVKQSHGMSLEWIGGINPSNGNAIYNQIFKDKATLTVDRSSSTAYMGLRSLTFGDSGVYFCVRRQLDFFDYWGQGASLTVSS
VL: DIVVTQSPASLAVSLGQRATISCRASQSVSTSRYSYLHWYQQKPGQPPKLLIKYASNLESGVPARFSGSGSGTDFTLNIHPVGEEDTATYYCQHSWEFPFTFGSGTKLEIKR
B16: HCV 208A-334 (antibody, V domains shown)
VH: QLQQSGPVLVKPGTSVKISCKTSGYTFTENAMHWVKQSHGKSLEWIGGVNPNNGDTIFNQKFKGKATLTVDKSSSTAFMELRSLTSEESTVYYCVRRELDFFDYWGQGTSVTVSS
VL: DIVLTQSPASLAVSLGQRATISCRASQSVSTSRYSYMHWYQQKPGQPPKLLIKYASNLESGVPARFSGSGSGTDFTLNIHPVAEEDTAAYYCQHSWGFPFTFGSGTKLEIKR
B17: HCV 208A-222 (antibody, V domains shown)
VH: EVQLQQSGPELEKPGASVRISCKTSGYTFTEYAMHWVKQSHGKSLEWIGGINPNNGNAIYNQIFKDKATLTVDRSSSTAYMGLRSLTFGDSGVYFCVRRQLDYFDYWGQGASLTVSS
VL: DIVVTQSPASLAVSLGQRATISCRASQSVSTSRYSYLHWYQQKPGQPPKLLIKYASNLESGVPARFSGSGSGTDFTLNIHPVGEEDTATYYCQHSWEFPFTFGSGTKLEIKR
B18: HCV 208A-638 (antibody, V domains shown)
VH: QGQLQQPGAEFVKPGASLKLSCRASGYTFTSYWIHWVKQRPGQGLEWIGEVDPSDSYINQNEKFRGKATLTVDKSSSTAYMQLGSLTSEDSAVYYCARHYYGVLDSWGQGTALTVSS
VL: QIVLTQSPTIMSASLGERVTMTCTASSSVSSSYLHWFQQKPGSSPKLWIYSTSNLASGVPPRFSGSGSGTSYSLSISSVEAEDVATYYCLQFHRSPWTFGGGAKLEIKR
B19: HCV 208B-589 (antibody, V domains shown)
VH: QVQLQQSGAGLAKPGASVKMSCKASGYTFTANKMHWAKQRPGQGLEWIGYIDPSSGYTEYNHKIQDKATLTADTSSSTAYMQLSSLTFEDSAVYYCTNFAYWGQGTLVTVSA
VL: DIVMTQTPLTLSVTIGQPASISCKSSQSLLFTNGKTYLNWFLQRPGQSPKRLIYLLSKLDSGVPDRFSGSGSGTDFTLKISRVEAEDLGVYYCLQSTYFPLTFGAGTKLELKR

This experiment deals with HCV Core 134-171-TT peptide (ALRZ-9 peptide) (HCV-1). As to the kind of experiment: SPR, captured mAb.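 Note: Anti-HCV Core mAbs from hybridoma supernatants held on a rabbit anti-mouse IgG CM5 surface, peptide flowed over 3 min then 4 min dissociation, duplicate concentrations.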 On the technique in general: Surface plasmon resonance follows binding to a sensor surface in real time, without labels.
Turning to B1, the affinity, expressed as Kd, was 2200 pM; the koff was 0.0024 s⁻¹; the kon was found to be 1.1e+06 M⁻¹ s⁻¹.

Take B2: binding was put at a Kd of 520 pM, the koff turned out to be 5.4e-05 s⁻¹ and the kon worked out at 100000 M⁻¹ s⁻¹.

B3 returned a Kd of 15000 pM, a koff of 0.014 s⁻¹ and an association rate constant (kon) of 1e+06 M⁻¹ s⁻¹.

Turning to B4, binding was put at a Kd of 460 pM, the koff came to 4.6e-05 s⁻¹ and the association rate constant (kon) came to 97000 M⁻¹ s⁻¹.

As for B5, the Kd came out at 96000 pM, the off-rate constant (koff) amounted to 0.00025 s⁻¹ and the kon was 2200 M⁻¹ s⁻¹.

In the case of B6, the Kd was 230 pM, the koff worked out at 0.00026 s⁻¹ and the kon turned out to be 1.1e+06 M⁻¹ s⁻¹.

In turn, B7 yielded a Kd of 160 pM, a koff of 0.00054 s⁻¹ and a kon of 3.4e+06 M⁻¹ s⁻¹.

Turning to B8, the Kd was found to be 210 pM, the koff worked out at 0.00034 s⁻¹ and the kon amounted to 1.6e+06 M⁻¹ s⁻¹.

As for B9, binding was characterised by a dissociation constant (Kd) of 390 pM, the koff is 0.00056 s⁻¹ and the kon amounted to 1.5e+06 M⁻¹ s⁻¹.

B10 came in with a dissociation constant Kd of 410 pM, a koff of 0.0005 s⁻¹ and a kon of 1.2e+06 M⁻¹ s⁻¹.

As for B11, the Kd is 400 pM, the koff worked out at 0.0006 s⁻¹ and the kon was 1.5e+06 M⁻¹ s⁻¹.

Molecule B12 had a Kd of 580 pM, a koff of 0.00065 s⁻¹ and a kon of 1.1e+06 M⁻¹ s⁻¹.

In the case of B13, the Kd came to 160 pM, the koff came to 0.00025 s⁻¹ and the kon turned out to be 1.5e+06 M⁻¹ s⁻¹.

In turn, B14 had a Kd of 450 pM, a koff of 0.00065 s⁻¹ and a kon of 1.4e+06 M⁻¹ s⁻¹.

Molecule B15 registered a Kd of 430 pM, a koff of 0.00037 s⁻¹ and a kon of 870000 M⁻¹ s⁻¹.

Regarding B16, binding was characterised by a dissociation constant (Kd) of 340 pM, the koff was 0.00057 s⁻¹ and the kon stood at 1.7e+06 M⁻¹ s⁻¹.

B17 returned a Kd of 310 pM, a koff of 0.00035 s⁻¹ and an on-rate constant (kon) of 1.1e+06 M⁻¹ s⁻¹.

In turn, B18 showed a Kd of 200 pM, a koff of 0.00053 s⁻¹ and a kon of 2.7e+06 M⁻¹ s⁻¹.

On to B19, for which the Kd worked out at 630 pM, the koff came to 0.00061 s⁻¹ and the kon worked out at 960000 M⁻¹ s⁻¹.
